The record followed here is the supplement of paper PMC7125110.

The KM is the substrate concentration at which the rate is half of its maximum. As usually defined, the kcat is the number of substrate molecules converted per active site and unit of time at saturation.

B1: glmS ribozyme (parent)
chain: AUAAAAGCGCCAGAACUACAGAAAUGUAGUUGACGAGGAGGAGGUUUAUCGAAUUUUCGGCGGAUGCCUCCAAA

Details in all cases: with glucosamine-6-phosphate
Data set [1] covers variants of B1. The experiment in a line: KM; higher = weaker cofactor use; RNA array. Summed up:
(§1)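 Tiles of sequenced MiSeq chips were imaged over ~14 h at 37 °C. On them, barcoded ribozyme variants had been transcribed in situ by E. coli RNA polymerase and were tracked via a hybridised Cy3 probe while glucosamine-6-phosphate (40 μM to 10 mM) in HEPES/KCl/Mg(OAc)2 buffer flowed in. Per-tile medians, normalised to baseline and to non-cleaving reference variants, were fit to one- or two-exponential decays for kobs, and weighted Michaelis–Menten fits gave kcat and KM.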

Variants of B1 are the subject of data set [2]. Kind of data set: self-cleavage kobs at 40 uM GlcN6P; higher = faster cleavage; RNA array. The method, boiled down: as §1
In data set [3] the parent is B1. The experiment in a line: self-cleavage kobs at 160 uM GlcN6P; higher = faster cleavage; RNA array. Summed up:
as §1

In data set [4] the parent is B1. The experiment in a line: self-cleavage kobs at 640 uM GlcN6P; higher = faster cleavage; RNA array. The method, boiled down: as §1
The variants in data set [5] derive from B1. Kind of data set: self-cleavage kobs at 2500 uM GlcN6P; higher = faster cleavage; RNA array. The method, boiled down: as §1
Variants of B1 are the subject of data set [6]. The experiment in a line: self-cleavage kobs at 10000 uM GlcN6P; higher = faster cleavage; RNA array. The method, boiled down: as §1
In data set [7] the parent is B1. Kind of data set: kcat; higher = faster cleavage; RNA array. Summed up: as §1

± gives the standard error. For some of these results: Fewer inactive variants are shown than the library holds.

Turning to A12U G66A, in the data set with glucosamine-6-phosphate [1], the KM was 278 ± 130 µM. Moreover, in the data set with glucosamine-6-phosphate [2], the “self-cleavage kobs at 40 uM GlcN6P” value amounted to 0.0012 ± 0.00016 s⁻¹. Moreover, the “self-cleavage kobs at 160 uM GlcN6P” value with glucosamine-6-phosphate [3] came out at 0.00266 ± 0.0007 s⁻¹. Moreover, the “self-cleavage kobs at 640 uM GlcN6P” value with glucosamine-6-phosphate [4] was found to be 0.00776 ± 0.002 s⁻¹. Moreover, the “self-cleavage kobs at 2500 uM GlcN6P” value with glucosamine-6-phosphate [5] amounted to 0.00745 ± 0.0017 s⁻¹. Moreover, in the data set with glucosamine-6-phosphate [6], the “self-cleavage kobs at 10000 uM GlcN6P” value was found to be 0.0359 ± 0.012 s⁻¹.
Consider C16A A36C C71A, for which the kcat with glucosamine-6-phosphate [7] was below 1e-05 s⁻¹. Besides, the “self-cleavage kobs at 10000 uM GlcN6P” value with glucosamine-6-phosphate [6] was below 1e-05 s⁻¹.
Turning to C8U C34U, the “self-cleavage kobs at 40 uM GlcN6P” value with glucosamine-6-phosphate [2] was below 1e-05 s⁻¹. The “self-cleavage kobs at 640 uM GlcN6P” value in the data set with glucosamine-6-phosphate [4] was below 1e-05 s⁻¹. Moreover, the “self-cleavage kobs at 10000 uM GlcN6P” value with glucosamine-6-phosphate [6] is below 1e-05 s⁻¹.
In the case of A12G U49G, the kcat with glucosamine-6-phosphate [7] is 0.00103 ± 0.00035 s⁻¹. The “self-cleavage kobs at 10000 uM GlcN6P” value in the data set with glucosamine-6-phosphate [6] turned out to be 6.93e-05 ± 1.7e-05 s⁻¹.
In the case of C10U C68A C71U, in the data set with glucosamine-6-phosphate [2], the “self-cleavage kobs at 40 uM GlcN6P” value was below 1e-05 s⁻¹.
On to G44U C58G, for which, in the data set with glucosamine-6-phosphate [2], the “self-cleavage kobs at 40 uM GlcN6P” value was below 1e-05 s⁻¹. Besides, in the data set with glucosamine-6-phosphate [3], the “self-cleavage kobs at 160 uM GlcN6P” value was below 1e-05 s⁻¹. For the same variant, the “self-cleavage kobs at 640 uM GlcN6P” value with glucosamine-6-phosphate [4] is below 1e-05 s⁻¹. Moreover, the “self-cleavage kobs at 2500 uM GlcN6P” value with glucosamine-6-phosphate [5] is below 1e-05 s⁻¹. Moreover, the “self-cleavage kobs at 10000 uM GlcN6P” value with glucosamine-6-phosphate [6] was below 1e-05 s⁻¹.
As for A33U A48C, in the data set with glucosamine-6-phosphate [2], the “self-cleavage kobs at 40 uM GlcN6P” value is below 1e-05 s⁻¹. The “self-cleavage kobs at 160 uM GlcN6P” value with glucosamine-6-phosphate [3] was below 1e-05 s⁻¹. In the data set with glucosamine-6-phosphate [4], the “self-cleavage kobs at 640 uM GlcN6P” value is below 1e-05 s⁻¹. Further, the “self-cleavage kobs at 2500 uM GlcN6P” value with glucosamine-6-phosphate [5] is below 1e-05 s⁻¹. Moreover, in the data set with glucosamine-6-phosphate [6], the “self-cleavage kobs at 10000 uM GlcN6P” value is below 1e-05 s⁻¹.
For the variant A36U, the KM with glucosamine-6-phosphate [1] worked out at 584 ± 170 µM.
Turning to C11A A33U, the KM in the data set with glucosamine-6-phosphate [1] came to 983 ± 40 µM.
Turning to G35U G51U, the KM in the data set with glucosamine-6-phosphate [1] was determined as 31.5 ± 11 µM.
On to G51U C58G, for which the kcat with glucosamine-6-phosphate [7] is 1.13e-05 ± 4.5e-06 s⁻¹. The “self-cleavage kobs at 40 uM GlcN6P” value with glucosamine-6-phosphate [2] is below 1e-05 s⁻¹. Moreover, the “self-cleavage kobs at 640 uM GlcN6P” value in the data set with glucosamine-6-phosphate [4] is below 1e-05 s⁻¹. In the data set with glucosamine-6-phosphate [6], the “self-cleavage kobs at 10000 uM GlcN6P” value is below 1e-05 s⁻¹.
Take C34A U45A G51U: the kcat with glucosamine-6-phosphate [7] was 0.000482 ± 0.00015 s⁻¹. The “self-cleavage kobs at 640 uM GlcN6P” value with glucosamine-6-phosphate [4] amounted to 0.000198 ± 5.3e-05 s⁻¹. In addition, the “self-cleavage kobs at 2500 uM GlcN6P” value with glucosamine-6-phosphate [5] came to 0.000272 ± 0.0001 s⁻¹. Further, the “self-cleavage kobs at 10000 uM GlcN6P” value with glucosamine-6-phosphate [6] is 0.00041 ± 0.00016 s⁻¹.
In the case of U55C A64G, the kcat in the data set with glucosamine-6-phosphate [7] was 0.000719 ± 0.00011 s⁻¹. Further, in the data set with glucosamine-6-phosphate [1], the KM was 1350 ± 370 µM. Moreover, the “self-cleavage kobs at 40 uM GlcN6P” value with glucosamine-6-phosphate [2] came out at 4.14e-05 ± 1.2e-05 s⁻¹. Besides, the “self-cleavage kobs at 160 uM GlcN6P” value in the data set with glucosamine-6-phosphate [3] amounted to 6.7e-05 ± 1e-05 s⁻¹. The “self-cleavage kobs at 640 uM GlcN6P” value with glucosamine-6-phosphate [4] was determined as 0.000233 ± 3e-05 s⁻¹. Further, the “self-cleavage kobs at 2500 uM GlcN6P” value in the data set with glucosamine-6-phosphate [5] was 0.000568 ± 7e-05 s⁻¹. The “self-cleavage kobs at 10000 uM GlcN6P” value with glucosamine-6-phosphate [6] turned out to be 0.000595 ± 6.1e-05 s⁻¹.
For U46C A53C, the kcat in the data set with glucosamine-6-phosphate [7] was determined as 0.002 ± 0.00044 s⁻¹. Also, the Michaelis constant (KM) with glucosamine-6-phosphate [1] came to 1380 ± 480 µM. For the same variant, the “self-cleavage kobs at 40 uM GlcN6P” value with glucosamine-6-phosphate [2] turned out to be 7.57e-05 ± 1.7e-05 s⁻¹. In addition, in the data set with glucosamine-6-phosphate [3], the “self-cleavage kobs at 160 uM GlcN6P” value is 0.000151 ± 4e-05 s⁻¹. Further, the “self-cleavage kobs at 640 uM GlcN6P” value with glucosamine-6-phosphate [4] stood at 0.000706 ± 0.00013 s⁻¹. The “self-cleavage kobs at 2500 uM GlcN6P” value with glucosamine-6-phosphate [5] came out at 0.00155 ± 0.00033 s⁻¹. Further, the “self-cleavage kobs at 10000 uM GlcN6P” value in the data set with glucosamine-6-phosphate [6] was determined as 0.00162 ± 0.0003 s⁻¹.
Consider U47A A64G, for which the KM with glucosamine-6-phosphate [1] turned out to be 787 ± 380 µM. Moreover, in the data set with glucosamine-6-phosphate [2], the “self-cleavage kobs at 40 uM GlcN6P” value was 0.000468 ± 8.5e-05 s⁻¹. In the data set with glucosamine-6-phosphate [3], the “self-cleavage kobs at 160 uM GlcN6P” value worked out at 0.00141 ± 0.00037 s⁻¹. In addition, the “self-cleavage kobs at 640 uM GlcN6P” value with glucosamine-6-phosphate [4] amounted to 0.00552 ± 0.0012 s⁻¹. The “self-cleavage kobs at 2500 uM GlcN6P” value with glucosamine-6-phosphate [5] is 0.00614 ± 0.0013 s⁻¹. Further, the “self-cleavage kobs at 10000 uM GlcN6P” value in the data set with glucosamine-6-phosphate [6] amounted to 0.0238 ± 0.0074 s⁻¹.
For U56C G62A, in the data set with glucosamine-6-phosphate [1], the KM was 135 ± 63 µM.
C16G G41C: the kcat with glucosamine-6-phosphate [7] was 2.59e-05 ± 7.1e-06 s⁻¹. Further, the “self-cleavage kobs at 40 uM GlcN6P” value with glucosamine-6-phosphate [2] was below 1e-05 s⁻¹. Besides, in the data set with glucosamine-6-phosphate [3], the “self-cleavage kobs at 160 uM GlcN6P” value was below 1e-05 s⁻¹.
Consider G37U G44C, for which, in the data set with glucosamine-6-phosphate [2], the “self-cleavage kobs at 40 uM GlcN6P” value was below 1e-05 s⁻¹. Besides, the “self-cleavage kobs at 160 uM GlcN6P” value with glucosamine-6-phosphate [3] is below 1e-05 s⁻¹. For the same variant, the “self-cleavage kobs at 640 uM GlcN6P” value with glucosamine-6-phosphate [4] is below 1e-05 s⁻¹.
As for G43U U56A, the kcat with glucosamine-6-phosphate [7] worked out at 1.76e-05 ± 3.4e-06 s⁻¹. Further, the “self-cleavage kobs at 40 uM GlcN6P” value in the data set with glucosamine-6-phosphate [2] is below 1e-05 s⁻¹.
As to A42U C50G, in the data set with glucosamine-6-phosphate [7], the kcat is below 1e-05 s⁻¹. Also, in the data set with glucosamine-6-phosphate [2], the “self-cleavage kobs at 40 uM GlcN6P” value is below 1e-05 s⁻¹. Besides, the “self-cleavage kobs at 10000 uM GlcN6P” value with glucosamine-6-phosphate [6] is below 1e-05 s⁻¹.
Take U31A U45A: the KM with glucosamine-6-phosphate [1] turned out to be 813 ± 360 µM. Further, the “self-cleavage kobs at 40 uM GlcN6P” value with glucosamine-6-phosphate [2] was found to be 0.000743 ± 0.0001 s⁻¹. Further, in the data set with glucosamine-6-phosphate [3], the “self-cleavage kobs at 160 uM GlcN6P” value came out at 0.00207 ± 0.00071 s⁻¹. In the data set with glucosamine-6-phosphate [4], the “self-cleavage kobs at 640 uM GlcN6P” value worked out at 0.00537 ± 0.0013 s⁻¹. For the same variant, the “self-cleavage kobs at 2500 uM GlcN6P” value in the data set with glucosamine-6-phosphate [5] came to 0.0106 ± 0.0024 s⁻¹. For the same variant, in the data set with glucosamine-6-phosphate [6], the “self-cleavage kobs at 10000 uM GlcN6P” value was 0.0333 ± 0.01 s⁻¹.
